# Reference: patent US20190071480A1 (Biogen, published 2019)
# Bridges are numbered along the chain shown (N, C = ends).
# T1: extracellular domain of activin receptor type IIB (ActRIIBecd), biotinylated (Homo sapiens (Human), UniProt Q13705 27-117, amino-biotinylated with amine-PEG3-Biotin)
# T1 construct: immobilised on a streptavidin-coated sensor chip; also called biotinylated ActRIIBecd; extracellular domain of ActRIIB
# T1 sequence: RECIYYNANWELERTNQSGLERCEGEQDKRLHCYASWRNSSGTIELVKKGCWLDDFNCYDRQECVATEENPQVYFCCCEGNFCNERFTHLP
# Experiments:
# [1] = molecular target: T1, extracellular domain of activin …; test: BIAcore SPR, biotinylated ActRIIBecd on chip; SD ±12.12 nM
# Protocol: (§1) Biosensor experiments. In one embodiment, experiments were performed on a BIAcore™ T100/T200 instrument (Pharmacia Biosensor AB) in the multichannel mode (serial flow path involving flow cells 1+2+3+4). Flow rate was 10 μl/min; temperature was 25° C.; and data were recorded at 2.5 points/s. All four segments of a sensor chip CMS were coated with streptavidin (Sigma) to a density of 2000 pg/mm² (2000 resonance units) by the aminocoupling procedure. ActRIIBecd (10 mg) and amine-PEG3-Biotin (10 mg, Pierce, Rockford, Ill.) were dissolved in 200 μl H₂O and 10 mg NaCNBH₃ was added to prepare biotinylated ActRIIBecd. The reaction mixture was heated at 70° C. for 24 h, after that a further 10 mg NaCNBH₃ was added and the reaction was heated at 70° C. for another 24 h. After cooling to room temperature, the mixture was desalted with the spin column (3,000 molecular weight cut off (MWCO)). […] Sensograms were recorded during flow of the analyte (the ActRIIBecd-associated polypeptides (i.e., domains) as previously described) first through flow cell 1 (control) then through flow cell 2 (biotinylated ActRIIBecd). […] The sensograms obtained at 1.11, 3.33, 10, 30, and 90 nM analyte were evaluated for equilibrium binding, association rate, and dissociation rate by using the programs supplied with the instrument (BIA evaluation 2.1; Software Handbook. 1995; Pharmacia Biosensor AB).
# [2] = molecular target: T1, extracellular domain of activin …; test: BIAcore SPR, biotinylated ActRIIBecd on chip; SD ±23.17 nM
# Protocol: as §1
# [3] = molecular target: T1, extracellular domain of activin …; test: BIAcore SPR as Example 5 (method not restated); SD ±1.41 nM
# Protocol: as §1
# [4] = molecular target: T1, extracellular domain of activin …; test: Mean KD column of Table 5; method not restated (BIAcore as Example 5); species also listed in Table 4
# Protocol: Biosensor experiments. In one embodiment, experiments were performed on a BIAcore™ T100/T200 instrument (Pharmacia Biosensor AB) in the multichannel mode (serial flow path involving flow cells 1+2+3+4). Flow rate was 10 μl/min; temperature was 25° C.; and data were recorded at 2.5 points/s. All four segments of a sensor chip CMS were coated with streptavidin (Sigma) to a density of 2000 pg/mm² (2000 resonance units) by the aminocoupling procedure. ActRIIBecd (10 mg) and amine-PEG3-Biotin (10 mg, Pierce, Rockford, Ill.) were dissolved in 200 μl H₂O and 10 mg NaCNBH₃ was added to prepare biotinylated ActRIIBecd. The reaction mixture was heated at 70° C. for 24 h, after that a further 10 mg NaCNBH₃ was added and the reaction was heated at 70° C. for another 24 h. After cooling to room temperature, the mixture was desalted with the spin column (3,000 molecular weight cut off (MWCO)). Biotinylated ActRIIBecd was collected, freeze-dried and used for streptavidin (SA) chip preparation. Amino-biotinylated ActRIIBecd was then immobilized independently on flow cells 2-4 for 10 minutes at a flow rate of 5 μL/min and a concentration of 20 μM in 10 mM sodium acetate, pH 4.0, at a density of 50-250 resonance units (RU). The stored polypeptides were dissolved in glycine buffer (2.5 g of glycine, 0.5 g of sucrose, 370 mg of L-glutamate, 10 mg of sodium chloride, and 10 mg of Tween 80 in 100 mL water, pH 4.5) to prepare 10 mg/mL solution and then diluted with previous glycine buffer to prepare analytes with various concentration. Sensograms were recorded during flow of the analyte (the ActRIIBecd-associated polypeptides (i.e., domains) as previously described) first through flow cell 1 (control) then through flow cell 2 (biotinylated ActRIIBecd). The sensogram obtained for flow cell 1 was subtracted from the sensogram obtained for flow cell 2. The sensograms obtained at 1.11, 3.33, 10, 30, and 90 nM analyte were evaluated for equilibrium binding, association rate, and dissociation rate by using the programs supplied with the instrument (BIA evaluation 2.1; Software Handbook. 1995; Pharmacia Biosensor AB).
# [5] = molecular target: T1, extracellular domain of activin …; test: BIAcore SPR as Example 5 (method not restated); SD ±2.06 nM
# Protocol: as §1
# [6] = molecular target: T1, extracellular domain of activin …; test: BIAcore SPR as Example 5 (method not restated); SD ±1.98 nM
# Protocol: as §1
# [7] = molecular target: T1, extracellular domain of activin …; test: BIAcore SPR as Example 5 (method not restated); SD ±2.89 nM
# Protocol: as §1
# [8] = molecular target: T1, extracellular domain of activin …; test: BIAcore SPR as Example 5 (method not restated); SD ±3.12 nM
# Protocol: as §1
# [9] = molecular target: T1, extracellular domain of activin …; test: BIAcore SPR as Example 5 (method not restated); SD ±1.09 nM
# Protocol: as §1
# [10] = molecular target: T1, extracellular domain of activin …; test: BIAcore SPR as Example 5 (method not restated); SD ±1.70 nM
# Protocol: as §1
# [11] = molecular target: T1, extracellular domain of activin …; test: BIAcore SPR as Example 5 (method not restated); SD ±2.21 nM
# Protocol: as §1
# [12] = molecular target: T1, extracellular domain of activin …; test: BIAcore SPR as Example 5 (method not restated); SD ±1.56 nM
# Protocol: as §1
# [13] = molecular target: T1, extracellular domain of activin …; test: BIAcore SPR as Example 5 (method not restated); SD ±1.72 nM
# Protocol: as §1
# [14] = molecular target: T1, extracellular domain of activin …; test: BIAcore SPR as Example 5 (method not restated); SD ±1.37 nM
# Protocol: as §1
# [15] = molecular target: T1, extracellular domain of activin …; test: BIAcore SPR, biotinylated ActRIIBecd on chip; SD ±16.41 nM
# Protocol: as §1
# [16] = molecular target: T1, extracellular domain of activin …; test: BIAcore SPR, biotinylated ActRIIBecd on chip; SD ±13.51 nM
# Protocol: as §1
binder,measurement,setting,value
AQAKHKQRKRLKSSCKRHPLY [Clone No. 10 domain (ActRIIBecd-associated polypeptide)],Kd,[1],0.0364 µM
AQAKHKGRKRLKSSCKRHPLY [Clone No. 11 domain (ActRIIBecd-associated polypeptide)],Kd,[2],0.0637 µM
"SEQ ID NO: 200, cysteine pairs C23-C27^a, C58-C91^a, C59-C93^a (designed binder, disulfides C23-C27 (intra), C58-C91 (intra), C59-C93 (intra)) VDFSDVGWNDWIVAPPGYHAFYCHGECPFPLADHLNSTNHAIVQTLVNSVNSKIPKACCVPTELSAISMLYLDENEKVVLKNYQDMVVEGCGCR",Kd,[3],0.0186 µM
same,Kd,[4],0.0186 µM
"SEQ ID NO: 200, cysteine pairs C23-C27^a, C58-C93^a, C59-C91^a (designed binder, disulfides C23-C27 (intra), C58-C93 (intra), C59-C91 (intra)) VDFSDVGWNDWIVAPPGYHAFYCHGECPFPLADHLNSTNHAIVQTLVNSVNSKIPKACCVPTELSAISMLYLDENEKVVLKNYQDMVVEGCGCR",Kd,[5],0.0201 µM
same,Kd,[4],0.0201 µM
"SEQ ID NO: 200, cysteine pairs C23-C27^a, C58-C91^b, C59-C93^b (designed binder, disulfides C23-C27 (intra), C58-C91 (inter), C59-C93 (inter), homodimer by intermolecular disulfide) VDFSDVGWNDWIVAPPGYHAFYCHGECPFPLADHLNSTNHAIVQTLVNSVNSKIPKACCVPTELSAISMLYLDENEKVVLKNYQDMVVEGCGCR",Kd,[6],0.0198 µM
same,Kd,[4],0.0198 µM
"SEQ ID NO: 200, cysteine pairs C23-C58^a (designed binder, disulfides C23-C58 (intra)) VDFSDVGWNDWIVAPPGYHAFYCHGECPFPLADHLNSTNHAIVQTLVNSVNSKIPKACCVPTELSAISMLYLDENEKVVLKNYQDMVVEGCGCR",Kd,[7],0.0476 µM
same,Kd,[4],0.0476 µM
"SEQ ID NO: 206, cysteine pairs C67-C71^a, C8-C41^a, C9-C43^a (designed binder, disulfides C67-C71 (intra), C8-C41 (intra), C9-C43 (intra)) NSKIPKACCVPTELSAISMLYLDENEKVVLKNYQDMVVEGCGCRVDFSDVGWNDWIVAPPGYHAFYCHGECPFPLADHLNSTNHAIVQTLVNSV",Kd,[8],0.0155 µM
same,Kd,[4],0.0155 µM
"SEQ ID NO: 206, cysteine pairs C8-C71^a (designed binder, disulfides C8-C71 (intra)) NSKIPKACCVPTELSAISMLYLDENEKVVLKNYQDMVVEGCGCRVDFSDVGWNDWIVAPPGYHAFYCHGECPFPLADHLNSTNHAIVQTLVNSV",Kd,[9],0.0497 µM
same,Kd,[4],0.0497 µM
"SEQ ID NO: 206, cysteine pairs C67-C71^a, C8-C43^a, C9-C41^a (designed binder, disulfides C67-C71 (intra), C8-C43 (intra), C9-C41 (intra)) NSKIPKACCVPTELSAISMLYLDENEKVVLKNYQDMVVEGCGCRVDFSDVGWNDWIVAPPGYHAFYCHGECPFPLADHLNSTNHAIVQTLVNSV",Kd,[10],0.0177 µM
same,Kd,[4],0.0177 µM
"SEQ ID NO: 212, cysteine pairs C59-C59^b, C8-C41^a, C9-C43^a (designed binder, disulfide 8-41, 9-43; also: homodimer via intermolecular C59-C59 disulfide, homodimer by intermolecular disulfide) NSKIPKACCVPTELSAISMLYLDENEKVVLKNYQDMVVEGCGCRAQAKHKQRKRLKSSCKRHPLY",Kd,[11],0.0181 µM
same,Kd,[4],0.0181 µM
"SEQ ID NO: 212, cysteine pairs C59-C59^b, C8-C43^a, C9-C41^a (designed binder, disulfide 9-41, 8-43; also: homodimer via intermolecular C59-C59 disulfide, homodimer by intermolecular disulfide) NSKIPKACCVPTELSAISMLYLDENEKVVLKNYQDMVVEGCGCRAQAKHKQRKRLKSSCKRHPLY",Kd,[12],0.0193 µM
same,Kd,[4],0.0193 µM
"SEQ ID NO: 188, cysteine pairs C44-C48^a (designed binder, disulfides C44-C48 (intra)) AQAKHKQRKRLKSSCKRHPLYVDFSDVGWNDWIVAPPGYHAFYCHGECPFPLADHLNSTNHAIVQTLVNSV",Kd,[13],0.0215 µM
same,Kd,[4],0.0215 µM
"SEQ ID NO: 292, cysteine pairs C80-C114^a, C79-C112^a, C44-C48^a (designed binder, disulfides C80-C114 (intra), C79-C112 (intra), C44-C48 (intra)) GQAKRKGYKRLKSSCKRHPLYVDFKDVGWNDHAVAPPGYHAFYCHGECPFPLADHLNSDNHAIVQTKVNSVNSKDPKACCVPTELSAPSPLYLDENEKPVLKNYQDMVVHGCGCR",Kd,[14],0.00619 µM
same,Kd,[4],0.00619 µM
"SEQ ID NO: 300, cysteine pairs C23-C27^a, C65-C65^b, C79-C112^b, C80-C114^b (designed binder, disulfides C23-C27 (intra), C65-C65 (inter), C79-C112 (inter), C80-C114 (inter), homodimer by intermolecular disulfide) VDFKDVGWNDHAVAPPGYHAFYCHGECPFPLADHLNSDNHAIVQTKVNSVGQAKRKGYKRLKSSCKRHPLYNSKDPKACCVPTELSAPSPLYLDENEKPVLKNYQDMVVHGCGCR",Kd,[13],0.00644 µM
same,Kd,[4],0.00644 µM
"SEQ ID NO: 316, cysteine pairs C67-C71^a, C8-C41^a, C9-C43^a, C109-C109^b (designed binder, disulfides C67-C71 (intra), C8-C41 (intra), C9-C43 (intra), C109-C109 (inter), homodimer by intermolecular disulfide) NSKDPKACCVPTELSAPSPLYLDENEKPVLKNYQDMVVHGCGCRVDFKDVGWNDHAVAPPGYHAFYCHGECPFPLADHLNSDNHAIVQTKVNSVGQAKRKGYKRLKSSCKRHPLY",Kd,[14],0.00534 µM
same,Kd,[4],0.00534 µM
Clone No. 30 domain (ActRIIBecd-associated polypeptide) (peptide) TALDGTRGAQGSGGGGGGGGGGGGGGGGGGGGAGRGHGRRGRSRCSRKSLHVDFKELG,Kd,[15],0.0617 µM
Recombinant polypeptide of clones 18 + 17 (designed binder) VDFSDVGWNDHAVAPPGYHAFYCHGECPFPLADHLNSTNHAIVQTLVNSVVDFSDVGWNDWIVAPPGYHAFYCHGECPFPLADHLNSDNHAIVQTLVNSV,Kd,[15],0.0664 µM
Recombinant polypeptide of clones 15 + 10 (designed binder) VDFSDVGWNDWIVAPPGYHAFYCHGECPFPLADHLNSTNHAIVQTLVNSVAQAKHKQRKRLKSSCKRHPLY,Kd,[16],0.0297 µM
Recombinant polypeptide of clones 21 + 15 + 10 (designed binder) NSKIPKACCVPTELSAISMLYLDENEKVVLKNYQDMVVEGCGCRVDFSDVGWNDWIVAPPGYHAFYCHGECPFPLADHLNSTNHAIVQTLVNSVAQAKHKQRKRLKSSCKRHPLY,Kd,[16],0.0142 µM
